The supplement of paper PMC7125110
± gives the standard error. For some assays here: Fewer inactive variants are shown than the library holds.

B1: glmS ribozyme (parent)
chain: AUAAAAGCGCCAGAACUACAGAAAUGUAGUUGACGAGGAGGAGGUUUAUCGAAUUUUCGGCGGAUGCCUCCAAA

Tests used:
Conditions in all cases: with glucosamine-6-phosphate
glucosamine-6-phosphate [1] = variants of: B1; assay: kcat; higher = faster cleavage; RNA array
Outline: (§1)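 Sequenced MiSeq chips were the platform: E. coli RNA polymerase transcribed barcoded ribozyme variants on them in situ, and a hybridised Cy3 probe tracked these at 37 °C. After glucosamine-6-phosphate (40 μM to 10 mM) in HEPES/KCl/Mg(OAc)2 buffer was flowed in, tiles were imaged over ~14 h. Signals normalised to baseline and to non-cleaving reference variants were reduced to per-tile medians and fit to one- or two-exponential decays to obtain kobs. kcat and KM were derived through weighted Michaelis–Menten fits across concentrations.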

glucosamine-6-phosphate [2] = variants of: B1; assay: KM; higher = weaker cofactor use; RNA array
Outline: as §1

glucosamine-6-phosphate [3] = variants of: B1; assay: self-cleavage kobs at 40 uM GlcN6P; higher = faster cleavage; RNA array
Outline: as §1

glucosamine-6-phosphate [4] = variants of: B1; assay: self-cleavage kobs at 2500 uM GlcN6P; higher = faster cleavage; RNA array
Outline: as §1

glucosamine-6-phosphate [5] = variants of: B1; assay: self-cleavage kobs at 10000 uM GlcN6P; higher = faster cleavage; RNA array
Outline: as §1

glucosamine-6-phosphate [6] = variants of: B1; assay: self-cleavage kobs at 160 uM GlcN6P; higher = faster cleavage; RNA array
Outline: as §1

glucosamine-6-phosphate [7] = variants of: B1; assay: self-cleavage kobs at 640 uM GlcN6P; higher = faster cleavage; RNA array
Outline: as §1

Variant	kcat (glucosamine-6-phosphate [1])	KM (glucosamine-6-phosphate [2])	self-cleavage kobs at 40 uM GlcN6P (glucosamine-6-phosphate [3])	self-cleavage kobs at 2500 uM GlcN6P (glucosamine-6-phosphate [4])	self-cleavage kobs at 10000 uM GlcN6P (glucosamine-6-phosphate [5])	self-cleavage kobs at 160 uM GlcN6P (glucosamine-6-phosphate [6])	self-cleavage kobs at 640 uM GlcN6P (glucosamine-6-phosphate [7])
AUAAAUGCGCCAGACCUACAGAAAUGUAGUUGACGAGGAGGAGGUUUAUCGAAUUUUCGGCGGAUGCCUCCAAA [A6U A15C]	7.81e-05 ± 1.6e-05 s⁻¹	4250 ± 2000 µM	< 1e-05 s⁻¹	2.58e-05 ± 7.8e-06 s⁻¹	5.56e-05 ± 8.2e-06 s⁻¹	–	–
AUAAAUGCGCCUGAACUACAGAAAUGUAGUUGACGAGGAGGAGGUUUAUCGAAUUUUCGGCGGAUGCCUCCAAA [A6U A12U]	0.000909 ± 9.6e-05 s⁻¹	2840 ± 510 µM	–	0.000426 ± 4.8e-05 s⁻¹	0.000715 ± 9.1e-05 s⁻¹	6.32e-05 ± 1.6e-05 s⁻¹	0.000158 ± 2.3e-05 s⁻¹
AUAAAUGCGCCCGAACUACAGAAAUGUAGUUGACGAGGAGGAGGUUUAUCGAAUUUUCGGCGGAUGCCUCCAAA [A6U A12C]	0.000271 ± 9.3e-05 s⁻¹	–	–	0.000111 ± 3.2e-05 s⁻¹	0.000168 ± 2.9e-05 s⁻¹	–	–
AUAAAUGCGCCAGAUCUACAGAAAUGUAGUUGACGAGGAGGAGGUUUAUCGAAUUUUCGGCGUAUACCUCCAAA [A6U A15U G63U G66A]	1.95e-05 ± 6.5e-06 s⁻¹	–	–	–	–	–	–
AUAAAGGCGCCAGAACUACAGAAAUGUAGUUGACGAGGAGGAGGUUUAUCGAAUUUUCGGCGGAUGCCGCCAAA [A6G U69G]	1.01e-05 ± 1.6e-06 s⁻¹	–	< 1e-05 s⁻¹	–	–	–	–
AUAAAGGCGCCAGAACUACAGAAAUGUAGUUGACGAGGAGGAGGUUUAUCGAAUAUUCGGCGGAUGCCUCCAAA [A6G U55A]	0.00056 ± 6.3e-05 s⁻¹	1630 ± 370 µM	–	0.000388 ± 4.1e-05 s⁻¹	0.000463 ± 4.3e-05 s⁻¹	5.94e-05 ± 1.2e-05 s⁻¹	0.000143 ± 1.7e-05 s⁻¹
AUAAAGGCGCCAGAACUACAGAAAUGUAGUUGACGAGGAGGAGGUUUAUCGAAUUGUCGGCGGAUGCCUCCAAA [A6G U56G]	0.000188 ± 3.3e-05 s⁻¹	1150 ± 540 µM	–	0.000107 ± 1.5e-05 s⁻¹	0.000191 ± 2.3e-05 s⁻¹	–	7.97e-05 ± 1.2e-05 s⁻¹
AUAAAGGCGCCAGAACUACAGAAAUGUAGUUGACGAGGAGGAGGUUUAUCGAAUUAUCGGCGGAUGCCUCCAAA [A6G U56A]	0.000242 ± 1.2e-05 s⁻¹	2780 ± 290 µM	–	0.000114 ± 2.4e-05 s⁻¹	0.00019 ± 3.6e-05 s⁻¹	–	4.69e-05 ± 1.4e-05 s⁻¹
AUAAAUGCGCCAGAACUACAGAAAUGUAGUUGACGAGGAGGAGGUUUAUCGAAUUUUCGGCGGAUGCCUCCAAA [A6U]	0.000447 ± 1.4e-05 s⁻¹	2740 ± 150 µM	–	0.00022 ± 4e-06 s⁻¹	0.000346 ± 6.3e-06 s⁻¹	2.53e-05 ± 2.3e-06 s⁻¹	8.33e-05 ± 1.6e-06 s⁻¹
AUAAAGGCGCCAGAACUACAGAAAUGUAGUUGACGAGGAGGAGGUUUAUCGAAUUUUCGGCGGGUGCCUCCAAA [A6G A64G]	1.81e-05 ± 5.8e-06 s⁻¹	–	< 1e-05 s⁻¹	–	–	–	–
AUAAAGGCGCCAGAACUACAGAAAUGUAGUUGACGAGGAGGAGGUUUAUCGAACUUUCGGCGGAUGCCUCCAAA [A6G U54C]	0.000547 ± 9.2e-05 s⁻¹	2590 ± 710 µM	–	0.000351 ± 7.7e-05 s⁻¹	0.000427 ± 5.3e-05 s⁻¹	4.65e-05 ± 1.2e-05 s⁻¹	0.0001 ± 1.3e-05 s⁻¹
AUAAAGGCGCCAGAACUACAGAAAUGUAGUUAACGAGGAGGAGGUUUAUCGAAUUUUCGGCGGAUGCCUCCAAA [A6G G32A]	< 1e-05 s⁻¹	–	< 1e-05 s⁻¹	–	–	–	–
AUAAAGGCGCCAGAACUACAGAAAUGUAGUUGACGAGGAGGAGGUUUAUCGAAUUUUCGGCGGAGGCCUCCAAA [A6G U65G]	0.000323 ± 2.1e-05 s⁻¹	3580 ± 500 µM	–	0.000141 ± 1.6e-05 s⁻¹	0.000234 ± 2e-05 s⁻¹	–	4.35e-05 ± 1e-05 s⁻¹
AUAAAGGCGCUAGAACUACAGAAAUGUAGUUGACGAGGAGGAGGUUUAUCGAAUUUUCGGCGGAUGCCUCCAAA [A6G C11U]	2.61e-05 ± 3.3e-06 s⁻¹	–	< 1e-05 s⁻¹	2.57e-05 ± 1.2e-05 s⁻¹	2.38e-05 ± 7.5e-06 s⁻¹	< 1e-05 s⁻¹	–
AUAAAGGCGCAAGAACUACAGAAAUGUAGUUGACGAGGAGGAGGUUUAUCGAAUUUUCGGCGGAUGCCUCCAAA [A6G C11A]	2.52e-05 ± 7.7e-06 s⁻¹	–	–	–	–	–	–
AUAAAGGCGCCAGAAUUACAGAAAUGUAGUUGACGAGGAGGAGGUUUAUCGAAUUUUCGGCGGAUGCCUCCAAA [A6G C16U]	0.000459 ± 3.2e-05 s⁻¹	3450 ± 450 µM	–	0.000208 ± 2.7e-05 s⁻¹	0.000336 ± 3.2e-05 s⁻¹	2.44e-05 ± 1.1e-05 s⁻¹	6.74e-05 ± 1e-05 s⁻¹
AUAAAGGCGUCAGAACUACAGAAAUGUAGUUGACGAGGAGGAGGUUUAUCGAAUUAUCGGCGGAUGCCUCCAAA [A6G C10U U56A]	< 1e-05 s⁻¹	–	< 1e-05 s⁻¹	–	–	–	< 1e-05 s⁻¹
AUAAAGGCGCCAGAACUACAGAAAUGUAUUUGACGAGGAGGAGGUUUAUCGAAUUUUCGGCGGAUGCCUCCAAA [A6G G29U]	8.41e-05 ± 9.3e-06 s⁻¹	3850 ± 1100 µM	–	3.54e-05 ± 1e-05 s⁻¹	6.03e-05 ± 9e-06 s⁻¹	–	–
AUAAAGGCGCCAGAACUACAGAAAUGUAGUUGACGAGGAGGAGGUUUAUCGAAUAUUCGGCGGAUGCGUCCAAA [A6G U55A C68G]	2.16e-05 ± 2.8e-06 s⁻¹	–	–	–	–	–	–
